From the nanobody polyreactivity screen of Harvey et al. (2022)

Assay: yeast display, Sf9 membrane polyspecificity reagent, FACS + sequencing; frameworks hold sequencing errors
Outline: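 Nanobodies from a synthetic yeast display library (Saccharomyces cerevisiae BJ5465), induced 36–48 hours with galactose, were stained 1 hour at 4 °C with 10% biotinylated, detergent-solubilized Sf9 membrane reagent, enriched on streptavidin microbeads, then FACS-sorted. Anti-HA (expression) and streptavidin (reagent binding) fluorescence set low and high (top ~1%) gates. Polyreactivity labels come from the gate of origin. Genes were colony-PCR amplified, MiSeq 2 × 250 sequenced and filtered by CDR length.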

Sequence | polyreactivity (PSR sort gate)
QVQLVESGGGLVQAGGSLRLSCAASGRTFGVYAMGWYRQAPGKERELVAGIRWRGGSTYYADSVKGRFTISRDNAKNTVYLQMNSLKPEDTAVYYWAARVQFPYPDYAWITVLYDYWGQCTQVTVSS | low polyreactivity
QVQLVESGGGLVQAGGSLRLSCAASGRTFGVYAMGWYRQAPGKERELVARIRYSGGTTRYADSVKGRFTISRDNAKITVYFQMNSLKPEDTAVYYCAARSGYFRSRFDYWGQGTQVTVSS | high polyreactivity
QVQLVESGGGLVQAGGSLRLSCAASGRTFGVYVMGWYRQAPGKERELVAAIRIGDSTNYADSVKGRFTISRDNAKNTVYLQMNSLKPEDTAVYYCNAYRVRYTVDSVFYGYDYWGQGTQVTVSS | high polyreactivity
QVQLVESGGGLVQAGGSLRLSCAASGRTFGVYVMGWYRQAPGKERELVAVITISGGSTYYADSVKGRFTISRDNAKNTVYLQMNSLKPEDTAVYYCAARTYYGYDYWGQGTQVTVSS | high polyreactivity
QVQLVESGGGLVQAGGSLRLSCAASGRTFGWNAMGWYRQAPGKERELVAAITRGGITNYADSVKGRFTISRDNAKNTVYLQMNSLKPEDTAVYYCNKKFYRGASRYYYWGQGTQVTVSS | high polyreactivity
QVQLVESGGGLVQAGGSLRLSCAASGRTFGWYAMGWYRQAPGKERELVAAISSSDDSTYYADSVKGRFTISRDNAKNTVYLQMNSLKPEDTAVYYCAADGYPDPYKVRFGYWGQGTQVTVSS | low polyreactivity
QVQLVESGGGLVQAGGSLRLSCAASGRTFGWYTMGRYRQAPGKERELVAGISSSGGSTYYADSVKGRFTISRDNAKNTVYLQMNSLKPEDTAVYYCARETYPHGLYYRPYDYWGQGTQVTVSS | low polyreactivity
QVQLVESGGGLVQAGGSLRLSCAASGRTFGYNAMGWNRQAPGKERELVAAINWSGASTYYADSVKGRFTISRDNAKNTVYFQMNSLKPADTAVYYCAADYSYIYGFDYWGQGTQVTVSS | low polyreactivity
QVQLVESGGGLVQAGGSLRLSCAASGRTFGYNAMGWYRQAPGKEREFVAAITWSGGRTYYADSVKGRFTISRDNAKNTVYLQMISLKPEDTAVYYCAAVLGRPLHGVAYGYWGQGTQVTVSS | low polyreactivity
QVQLVESGGGLVQAGGSLRLSCAASGRTFGYNAMGWYRQAPGKERELVAAISYSGGRTYYADSVKGRFTISRDNAKNTVYLQMNSLKPEDTAVYYCAAKNPYKYDYWGQGTQVTVSS | high polyreactivity
QVQLVESGGGLVQAGGSLRLSCAASGRTFGYNAMGWYRQAPGKERELVAAITRGGSTYYADSVKGRFTISRDNAKNTVYLQMNSLKPEDTAVYYCAAKSYWSGYFVGYEYWGQGTQVTVSS | high polyreactivity
QVQLVESGGGLVQAGGSLRLSCAASGRTFGYNAMGWYRQAPGTERELVAGITGTGGTTNYADSVKGRFTISRDNAKNTVYLQMNSLKPEDTAVYYCNKDYDVSSEKEPLGYWGQGTQVTVSS | low polyreactivity
QVQLVESGGGLVQAGGSLRLSCAASGRTFGYNGMGWYRQAPGKERELVAAINSGGNTNYADSVKGRFTISRDNAKNTVYLQMNSLKPEDTSVYYCAKYGTLFEPVPNEYDYWGQGTQVTVSS | low polyreactivity
QVQLVESGGGLVQAGGSLRLSCAASGRTFGYNVMGWYRQAPGKERELVARITSGGNTKYADSVKGRFTISRDNAKNTVYLQMNSLKPEDTAVYYCAKRPLGVRGIYFQYDYWGQGTQVTVSS | high polyreactivity
QVQLVESGGGLVQAGGSLRLSCAASGRTFGYTMGWYRQAPGKERELVAAITRSVTTYYADSVKGRFTISRDNAKNTVYLQMNSLKPEDTAVYYCAARPKYPYGRFGYYWGQGTQVTVSS | high polyreactivity
QVQLVESGGGLVQAGGSLRLSCAASGRTFGYYAMGWYRPAPGKERELVAAITRTGGSTHYADSVKGRFTISRDNAKNTVYLQMNSLKPEDTAVYYCAVDYHQAWPSADYWFEYDYWGQGTQVTVSS | low polyreactivity
QVQLVESGGGLVQAGGSLRLSCAASGRTFGYYAMGWYRQAPGKEREFVAAISSRGGSTRYADSVKGRFTISRDNAKNTVYLQMNSLKPEDTAVYYCNKGYYRHPDESDYGGQGTQVTVSS | high polyreactivity
QVQLVESGGGLVQAGGSLRLSCAASGRTFGYYAMGWYRQAPGKERELVAAINSRGGSTYYADSVKGRFTISRDNAKNTVYLQMNSLKPEDTAVYYCAVVRWRQYIFATYDYWGQGTQVTVSS | high polyreactivity
QVQLVESGGGLVQAGGSLRLSCAASGRTFGYYAMGWYRQAPGKERELVAAISRGGRTNYADSVKGRFTISRDNAKNTVYLQMNSLKPEDTAVYYCAKSGTIPRYTASYSLLDYWGQGTQVTVSS | low polyreactivity
QVQLVESGGGLVQAGGSLRLSCAASGRTFGYYAMGWYRQAPGKERELVAAISSRSSTTYYADSVKGRFTISRDNAKNTVYLQMNSLKTEDNAVYYCNVAYGEWKTFDYWGQGTQVTVSS | high polyreactivity
QVQLVESGGGLVQAGGSLRLSCAASGRTFGYYAMGWYRQAPGKERELVAAISWRGGSTYYADSVKGRFTISRDNAKNTVYLQMNSLKPEDTAVYYCHRAYVYPQGPYPYDYWGQGTQVTVSS | high polyreactivity
QVQLVESGGGLVQAGGSLRLSCAASGRTFGYYAMGWYRQAPGKERELVAAITRTGGSTHYADSVKGRFTISRDNAKNTVYLQKNSLKPEDTAVYYCARDYRYTIPYDYWGQGTQVTVSS | low polyreactivity
QVQLVESGGGLVQAGGSLRLSCAASGRTFGYYAMGWYRQAPGQERELVAAISWSDSGTYYADSVKGRFTISRDNAKNTVYLQMNSLKPEDTAVYYCAKDEPYFVFRDTYDYWGQGTQVTVSS | high polyreactivity
QVQLVESGGGLVQAGGSLRLSCAASGRTFGYYGMGWYRQAPGKERELVASINFSSGSTFYADSVKGRFTISRDNAKNTVYLQMNSLKPEDTAVYYCAARAKAVRTYAYNYWGQGTQVTVSS | low polyreactivity
QVQLVESGGGLVQAGGSLRLSCAASGRTFGYYVMGWYRQAPGKERELVAAISRSGGTTYYADSVKGRFTISRDNAKNTVYLQMNSLKPEDTAVYYCATDSRTGYDYWGQGTQVTVSS | high polyreactivity
QVQLVESGGGLVQAGGSLRLSCAASGRTFHGYAMGWYRQAPGKERELVAAITSSGARTYYADSVKGRFTISRDNAKNTVFLQMNILKPEDSAVYYCAVNWLRGMDWGQGTQVTVSS | high polyreactivity
QVQLVESGGGLVQAGGSLRLSCAASGRTFHLYAIGWSRQAAGKERELVAAINSGGRTNYADSVKGRFTISLDNAKNTVYLQLNSLKPEDTAVYYCAARANPYVLKYYYWGQGSQVTVSS | high polyreactivity
QVQLVESGGGLVQAGGSLRLSCAASGRTFHNYAMGRYRQAPGKERELVAAISRGGNTYYADSVKGRFTISRDNSKNTVYLQMNSLKPEDTAVYYCAKDNHFEAYRYDYWGQGTQVTVSS | high polyreactivity
QVQLVESGGGLVQAGGSLRLSCAASGRTFHRNAMGWYRQAPGKERELVAAITGDGRTNYADSVKGRFTISRDNAKNTVYLQMNSLKPEDTAVYYCNRDNDYYRPGGRPVGIFDYWGQGTQVTVSS | low polyreactivity
QVQLVESGGGLVQAGGSLRLSCAASGRTFHRYAMGWYRPAPGKERELVAAISRGGITYYADSVKGRFTISRDNAKNTVYLQMNSLKPEDTAVYFCAALYRYYHESSPFDYWGQGTQVTVSS | high polyreactivity
